{"source": "patent US20250339531A1", "about": "“DUX4 POLYPEPTIDES AND NUCLEIC ACIDS FOR TREATING INFLAMMATORY AND AUTOIMMUNE CONDITIONS” (Fred Hutchinson Cancer Center, priority 2021, published 2025)", "test_system": "proteins that co-immunoprecipitated with DUX4-CTD constructs expressed in MB135 myoblasts", "assay": "LC-MS of proteins co-immunoprecipitated with DUX4-CTD (Table 1) and western validation", "type": "binding, human", "design": "key to 4. mL1dL2 + Dox + IFNG / 4. + IFNG mix / 4. longCTD + Dox + IFNG / 3. + IFNg + Dox longCTD / 3. + Dox longCTD / 3. + IFNG longCTD: peptide-spectrum matches (PSMs) per protein", "details": "for 4. longCTD + Dox + IFNG: LC-MS counts of the listed protein co-immunoprecipitated with DUX4-CTD bait longCTD, experiment 4, Dox + IFNG; for 3. + Dox longCTD: experiment 3, Dox only; for 3. + IFNg + Dox longCTD: experiment 3, IFNg + Dox; for SUM of PSMS: sum over all samples", "method_in_brief": "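Two independent experiments compared uninduced, doxycycline and doxycycline+IFNG MB135iDUX4-CTD (plus MB135iDUX4mL1dL2) myoblasts. Anti-FLAG pulldowns (3 h, 4 °C) were eluted in LDS buffer for western validation or with FLAG peptide for trypsin digestion and Orbitrap LC-MS; hits needed ≥2 PSMs in both experiments, ranked by total PSMs.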"}
{"molecule": "O95782 (protein, UniProt O95782 1-977, looked up, full-length) MPAVSKGDGMRGLAVFISDIRNCKSKEAEIKRINKELANIRSKFKGDKALDGYSKKKYVCKLLFIFLLGHDIDFGHMEAVNLLSSNKYTEKQIGYLFISVLVNSNSELIRLINNAIKNDLASRNPTFMCLALHCIANVGSREMGEAFAADIPRILVAGDSMDSVKQSAALCLLRLYKASPDLVPMGEWTARVVHLLNDQHMGVVTAAVSLITCLCKKNPDDFKTCVSLAVSRLSRIVSSASTDLQDYTYYFVPAPWLSVKLLRLLQCYPPPEDAAVKGRLVECLETVLNKAQEPPKSKKVQHSNAKNAILFETISLIIHYDSEPNLLVRACNQLGQFLQHRETNLRYLALESMCTLASSEFSHEAVKTHIDTVINALKTERDVSVRQRAADLLYAMCDRSNAKQIVSEMLRYLETADYAIREEIVLKVAILAEKYAVDYSWYVDTILNLIRIAGDYVSEEVWYRVLQIVTNRDDVQGYAAKTVFEALQAPACHENMVKVGGYILGEFGNLIAGDPRSSPPVQFSLLHSKFHLCSVATRALLLSTYIKFINLFPETKATIQGVLRAGSQLRNADVELQQRAVEYLTLSSVASTDVLATVLEEMPPFPERESSILAKLKRKKGPGAGSALDDGRRDPSSNDINGGMEPTPSTVSTPSPSADLLGLRAAPPPAAPPASAGAGNLLVDVFDGPAAQPSLGPTPEEAFLSELEPPAPESPMALLADPAPAADPGPEDIGPPIPEADELLNKFVCKNNGVLFENQLLQIGVKSEFRQNLGRMYLFYGNKTSVQFQNFSPTVVHPGDLQTQLAVQTKRVAAQVDGGAQVQQVLNIECLRDFLTPPLLSVRFRYGGAPQALTLKLPVTINKFFQPTEMAAQDFFQRWKQLSLPQQEAQKIFKANHPMDAEVTKAKLLGFGSALLDNVDPNPENFVGAGIIQTKALQVGCLLRLEPNAQAQMYRLTLRTSKEPVSRHLCELLAQQF", "values": [{"measurement": "4. longCTD + Dox + IFNG", "result": 2}, {"measurement": "3. + Dox longCTD", "setting": "bait longCTD", "result": 10}, {"measurement": "3. + IFNg + Dox longCTD", "setting": "bait longCTD", "result": 31}, {"measurement": "SUM of PSMS", "result": 48}]}
{"molecule": "A0A087WW87 (protein, UniProt A0A087WW87 1-121, looked up, full-length) MRLPAQLLGLLMLWVPGSSEDIVMTQTPLSLPVTPGEPASISCRSSQSLLDSDDGNTYLDWYLQKPGQSPQLLIYTLSYRASGVPDRFSGSGSGTDFTLKISRVEAEDVGVYYCMQRIEFP", "values": [{"measurement": "4. longCTD + Dox + IFNG", "result": 5}, {"measurement": "3. + Dox longCTD", "setting": "bait longCTD", "result": 2}, {"measurement": "3. + IFNg + Dox longCTD", "setting": "bait longCTD", "result": 2}, {"measurement": "SUM of PSMS", "result": 15}]}
{"molecule": "O43175 (protein, UniProt O43175 1-533, looked up, full-length) MAFANLRKVLISDSLDPCCRKILQDGGLQVVEKQNLSKEELIAELQDCEGLIVRSATKVTADVINAAEKLQVVGRAGTGVDNVDLEAATRKGILVMNTPNGNSLSAAELTCGMIMCLARQIPQATASMKDGKWERKKFMGTELNGKTLGILGLGRIGREVATRMQSFGMKTIGYDPIISPEVSASFGVQQLPLEEIWPLCDFITVHTPLLPSTTGLLNDNTFAQCKKGVRVVNCARGGIVDEGALLRALQSGQCAGAALDVFTEEPPRDRALVDHENVISCPHLGASTKEAQSRCGEEIAVQFVDMVKGKSLTGVVNAQALTSAFSPHTKPWIGLAEALGTLMRAWAGSPKGTIQVITQGTSLKNAGNCLSPAVIVGLLKEASKQADVNLVNAKLLVKEAGLNVTTSHSPAAPGEQGFGECLLAVALAGAPYQAVGLVQGTTPVLQGLNGAVFRPEVPLRRDLPLLLFRTQTSDPAMLPTMIGLLAEAGVRLLSYQTSLVSDGETWHVMGISSLLPSLEAWKQHVTEAFQFHF", "values": [{"measurement": "4. longCTD + Dox + IFNG", "result": 1}, {"measurement": "3. + Dox longCTD", "setting": "bait longCTD", "result": 1}, {"measurement": "3. + IFNg + Dox longCTD", "setting": "bait longCTD", "result": 3}, {"measurement": "SUM of PSMS", "result": 6}]}
{"molecule": "Q00325 (protein, UniProt Q00325 1-362, looked up, full-length) MFSSVAHLARANPFNTPHLQLVHDGLGDLRSSSPGPTGQPRRPRNLAAAAVEEQYSCDYGSGRFFILCGLGGIISCGTTHTALVPLDLVKCRMQVDPQKYKGIFNGFSVTLKEDGVRGLAKGWAPTFLGYSMQGLCKFGFYEVFKVLYSNMLGEENTYLWRTSLYLAASASAEFFADIALAPMEAAKVRIQTQPGYANTLRDAAPKMYKEEGLKAFYKGVAPLWMRQIPYTMMKFACFERTVEALYKFVVPKPRSECSKPEQLVVTFVAGYIAGVFCAIVSHPADSVVSVLNKEKGSSASLVLKRLGFKGVWKGLFARIIMIGTLTALQWFIYDSVKVYFRLPRPPPPEMPESLKKKLGLTQ", "values": [{"measurement": "4. longCTD + Dox + IFNG", "result": 2}, {"measurement": "3. + IFNg + Dox longCTD", "setting": "bait longCTD", "result": 1}, {"measurement": "SUM of PSMS", "result": 8}]}
{"molecule": "Q96MG2 (protein, UniProt Q96MG2 1-331, looked up, full-length) MSMTTRAWEELDGGLGSCQALEDHSALAETQEDRASATPRLADSGSVPHDSQVAEGPSVDTRPKKMEKEPAARGTPGTGKERLKAGASPRSVPARKKAQTAPPLQPPPPPPALSEELPWGDLSLNKCLVLASLVALLGSAFQLCRDAVPGEAALQARVPEPWVPPSSAPREPSSPLPKFEAQAPPSAPPAPRAEAEVRPKIPGSREAAENDEEEPGEATGEAVREDRVTLADRGPKERPRREGKPRKEKPRKEERPKKERPRKEERPRAAREPREALPQRWESREGGHRPWARDSRDAEPRKKQAWVSPRRPDEEQRPGSRQKLRAGKGRD", "values": [{"measurement": "4. longCTD + Dox + IFNG", "result": 3}, {"measurement": "3. + Dox longCTD", "setting": "bait longCTD", "result": 4}, {"measurement": "3. + IFNg + Dox longCTD", "setting": "bait longCTD", "result": 10}, {"measurement": "SUM of PSMS", "result": 18}]}
{"molecule": "P05141 (protein, UniProt P05141 1-298, looked up, full-length) MTDAAVSFAKDFLAGGVAAAISKTAVAPIERVKLLLQVQHASKQITADKQYKGIIDCVVRIPKEQGVLSFWRGNLANVIRYFPTQALNFAFKDKYKQIFLGGVDKRTQFWLYFAGNLASGGAAGATSLCFVYPLDFARTRLAADVGKAGAEREFRGLGDCLVKIYKSDGIKGLYQGFNVSVQGIIIYRAAYFGIYDTAKGMLPDPKNTHIVISWMIAQTVTAVAGLTSYPFDTVRRRMMMQSGRKGTDIMYTGTLDCWRKIARDEGGKAFFKGAWSNVLRGMGGAFVLVLYDEIKKYT", "values": [{"measurement": "4. longCTD + Dox + IFNG", "result": 6}, {"measurement": "3. + IFNg + Dox longCTD", "setting": "bait longCTD", "result": 3}, {"measurement": "SUM of PSMS", "result": 9}]}
{"molecule": "P04843 (protein, UniProt P04843 1-607, looked up, full-length) MEAPAAGLFLLLLLGTWAPAPGSASSEAPPLINEDVKRTVDLSSHLAKVTAEVVLAHLGGGSTSRATSFLLALEPELEARLAHLGVQVKGEDEEENNLEVRETKIKGKSGRFFTVKLPVALDPGAKISVIVETVYTHVLHPYPTQITQSEKQFVVFEGNHYFYSPYPTKTQTMRVKLASRNVESYTKLGNPTRSEDLLDYGPFRDVPAYSQDTFKVHYENNSPFLTITSMTRVIEVSHWGNIAVEENVDLKHTGAVLKGPFSRYDYQRQPDSGISSIRSFKTILPAAAQDVYYRDEIGNVSTSHLLILDDSVEMEIRPRFPLFGGWKTHYIVGYNLPSYEYLYNLGDQYALKMRFVDHVFDEQVIDSLTVKIILPEGAKNIEIDSPYEISRAPDELHYTYLDTFGRPVIVAYKKNLVEQHIQDIVVHYTFNKVLMLQEPLLVVAAFYILFFTVIIYVRLDFSITKDPAAEARMKVACITEQVLTLVNKRIGLYRHFDETVNRYKQSRDISTLNSGKKSLETEHKALTSEIALLQSRLKTEGSDLCDRVSEMQKLDAQVKELVLKSAVEAERLVAGKLKKDTYIENEKLISGKRQELVTKIDHILDAL", "values": [{"measurement": "4. longCTD + Dox + IFNG", "result": 2}, {"measurement": "3. + Dox longCTD", "setting": "bait longCTD", "result": 4}, {"measurement": "3. + IFNG longCTD", "setting": "bait longCTD, experiment 3, IFNG only, no doxycycline (bait at background level)", "result": 1}, {"measurement": "3. + IFNg + Dox longCTD", "setting": "bait longCTD", "result": 14}, {"measurement": "SUM of PSMS", "result": 30}]}
{"molecule": "P13674 (protein, UniProt P13674 1-534, looked up, full-length) MIWYILIIGILLPQSLAHPGFFTSIGQMTDLIHTEKDLVTSLKDYIKAEEDKLEQIKKWAEKLDRLTSTATKDPEGFVGHPVNAFKLMKRLNTEWSELENLVLKDMSDGFISNLTIQRQYFPNDEDQVGAAKALLRLQDTYNLDTDTISKGNLPGVKHKSFLTAEDCFELGKVAYTEADYYHTELWMEQALRQLDEGEISTIDKVSVLDYLSYAVYQQGDLDKALLLTKKLLELDPEHQRANGNLKYFEYIMAKEKDVNKSASDDQSDQKTTPKKKGVAVDYLPERQKYEMLCRGEGIKMTPRRQKKLFCRYHDGNRNPKFILAPAKQEDEWDKPRIIRFHDIISDAEIEIVKDLAKPRLRRATISNPITGDLETVHYRISKSAWLSGYENPVVSRINMRIQDLTGLDVSTAEELQVANYGVGGQYEPHFDFARKDEPDAFKELGTGNRIATWLFYMSDVSAGGATVFPEVGASVWPKKGTAVFWYNLFASGEGDYSTRHAACPVLVGNKWVSNKWLHERGQEFRRPCTLSELE", "values": [{"measurement": "4. longCTD + Dox + IFNG", "result": 9}, {"measurement": "3. + Dox longCTD", "setting": "bait longCTD", "result": 3}, {"measurement": "3. + IFNg + Dox longCTD", "setting": "bait longCTD", "result": 5}, {"measurement": "SUM of PSMS", "result": 45}]}
{"molecule": "P25705 (protein, UniProt P25705 1-553, looked up, full-length) MLSVRVAAAVVRALPRRAGLVSRNALGSSFIAARNFHASNTHLQKTGTAEMSSILEERILGADTSVDLEETGRVLSIGDGIARVHGLRNVQAEEMVEFSSGLKGMSLNLEPDNVGVVVFGNDKLIKEGDIVKRTGAIVDVPVGEELLGRVVDALGNAIDGKGPIGSKTRRRVGLKAPGIIPRISVREPMQTGIKAVDSLVPIGRGQRELIIGDRQTGKTSIAIDTIINQKRFNDGSDEKKKLYCIYVAIGQKRSTVAQLVKRLTDADAMKYTIVVSATASDAAPLQYLAPYSGCSMGEYFRDNGKHALIIYDDLSKQAVAYRQMSLLLRRPPGREAYPGDVFYLHSRLLERAAKMNDAFGGGSLTALPVIETQAGDVSAYIPTNVISITDGQIFLETELFYKGIRPAINVGLSVSRVGSAAQTRAMKQVAGTMKLELAQYREVAAFAQFGSDLDAATQQLLSRGVRLTELLKQGQYSPMAIEEQVAVIYAGVRGYLDKLEPSKITKFENAFLSHVVSQHQALLGTIRADGKISEQSDAKLKEIVTNFLAGFEA", "values": [{"measurement": "4. longCTD + Dox + IFNG", "result": 4}, {"measurement": "3. + Dox longCTD", "setting": "bait longCTD", "result": 1}, {"measurement": "3. + IFNg + Dox longCTD", "setting": "bait longCTD", "result": 2}, {"measurement": "SUM of PSMS", "result": 17}]}
{"molecule": "P06702 (protein, UniProt P06702 1-114, looked up, full-length) MTCKMSQLERNIETIINTFHQYSVKLGHPDTLNQGEFKELVRKDLQNFLKKENKNEKVIEHIMEDLDTNADKQLSFEEFIMLMARLTWASHEKMHEGDEGPGHHHKPGLGEGTP", "values": [{"measurement": "3. + Dox longCTD", "setting": "bait longCTD", "result": 1}, {"measurement": "3. + IFNg + Dox longCTD", "setting": "bait longCTD", "result": 1}, {"measurement": "SUM of PSMS", "result": 4}]}
